Source: US7256321B2, “Intracellular modulators of apoptopic cell death pathways” (Applied Research Systems ARS Holding N.V., priority 1997, dated 2007)

Key:
Type in all cases: cell-based, mouse
3DO transfected clones [1] = test: Apoptosis induced by other stimuli on 3DO transfected clones; settings: GILR overexpression in 3DO clones GILR/1,5,7 vs pcDNA3/4,7,8, 20 hours
Method: FIGS. 7A-7D are bar-graph representations of the results of the analysis of apoptosis induced by other stimuli on 3DO transfected clones, wherein in FIG. 7A is shown the results obtained with withdrawn trophic factor; in FIG. 7B is shown the results obtained with u.v. irradiation (100 J/m2); in FIG. 7C is shown the results obtained with DEX ([…]); and in FIG. 7D is shown the results obtained with monoclonal (mAb) anti-Fas antibody (5 μg/ml). All groups were treated for 20 hours. Cell death was measured as indicated above with respect to FIG. 6, and as noted herein below. […]
Aliquots of2 ml transfected clones (1×10^6/ml) were incubated with DEX or subjected to deprivation conditions (1% FCS). The apoptosis was evaluated after 20 hours as described below.
(§1) Apoptosis was measured by flow cytometry as described elsewhere (Nicoletti et al., 1991). […] The PI-fluorescence of individual nuclei was measured by flow cytometry using standard FACScan equipment (Becton Dickinson). […] A 560 nm dichroid mirror (DM 570) and a 600 nm band pass filter (band width 35 nm) were used to collect the red fluorescence due to PI DNA staining. The data were recorded in logarithmic scale in a Hewlett Packard (HP 9000, model 310; Palo Alto, Calif.) computer. The percentage of apoptotic cell nuclei (sub-diploid DNA peak in the DNA fluorescence histogram) was calculated with specific FACScan research software (Lysis II).

[2] = test system: Fas/Fas-L expression on 3DO transfected clones; test: Fas and Fas-L expression on 3DO transfected clones (flow cytometry); settings: GILR expression in transfected 3DO clones
Method: Hamster anti-mouse CD3ε (clone 145-2C11; Pharmingen, San Diego, Calif.) mAb at 1 μg/well (=1 μg/ml of anti-CD3 antibody) was allowed to adhere to flat-bottomed, high-binding 96-well plates (Costar, Cambridge, Mass.) at 4° C. in 100 μl PBS. After 20 hours, plates coated with mAb were washed and transfected clones were plated at 1×10^5 cells/well and incubated at 37° C. for 20 hours. Isotype-matched rat anti-mouse IgG 2b mAbs (clone R 35-38, Pharmingen) were used a control.
A single suspension (1×10^6cells/sample) was incubated for 30 minutes on ice in 50 μl staining buffer (PBS plus 5% FCS), containing 10 μg/ml hamster anti-mouse Fas mAb directly conjugated to R-phycoerythrin (PE) or PE-hamster IgG (isotype control).
Both mAbs were purchased from Pharmingen. Cells were also stained with rabbit polyclonal antibody raised against a peptide corresponding to amino acids 260-279 mapping at the carboxy terminus of human Fas-L (Santa Cruz Biotechnology, Inc., Santa Cruz, Calif.) or with isotype-matched antibody (ab), and with anti-rabbit IgG FITC conjugate, F(ab′)2 fragment (Sigma), as a second step reagent.
All clones were stained with hamster anti-mouse αCD3, directly conjugated with fluorescein (Pharmingen). The median or percentage of Fas and Fas-L histograms was calculated using lysis II research software (Becton-Dickinson, Mountain View, U.S.A.).

IL-2R = IL-2R (CD25) expression on 3DO transfected clones (flow cytometry); settings: overexpression of GILR in transfected 3DO clones
Method: For that purpose, GILR transfected clones were activated and analyzed for apoptosis and expression of activation markers, like the interleukin-2 receptor (IL-2R). In particular, after stimulation with cross-linked anti-CD3 monoclonal antibodies (1 μg/ml), GILR-transfected and empty vector clones (used as control) were stained with anti-IL-2R monoclonal antibody (CD25) or treated for propidium iodide labeling for apoptosis evaluation. The supernatants from control and anti-CD3-treated clones were used for IL-2 detection in an ELISA assay.

3DO transfected clones [3] = test: Anti-CD3-induced apoptosis of 3DO transfected clones (propidium iodide flow cytometry); settings: GILR expression in transfected 3DO clones
Method: Thymocytes were obtained from 3 to 5-week-old C3H/HeN mice purchased from Charles River (Milan, Italy). The cell suspensions were washed, filtered and adjusted to a concentration of 8×10^6 cells/ml in complete medium. The cells were incubated at 37° C. alone or with 100 nM/l DEX (Sigma, St. Louis, Mo.) for 3 hrs. A CD3+, CD4+, CD2+, CD44+ sub-line obtained in our laboratory of the OVA-specific mouse hybridoma T cell line (3DO; Ayroldi et al., 1995) maintained in suspension in RPMI 1640 medium supplemented with 10% FCS and […] HEPES buffer was used for transfection experiments. […]
The GILR cDNA coding sequence (874 bp—see FIG. 2) was cloned into a pcDNA3 plasmid (Invitrogen) for expression in mammalian cells. […] These surviving cells were considered clones and analyzed in an RNase protection assay for the expression of exogenous GILR (Vito et al., 1996). […]
as §1, with “The percentage of apoptotic cell nuclei (sub-diploid DNA peak in the DNA fluorescence histogram) was calculated with specific FACScan research software (Lysis II).” left out

B1: GILR: Glucocorticoid Induced Leucine-zipper family Related protein, 137 amino acids (mouse), overexpressed from GILR cDNA in pcDNA3 (protein)
chain: MNTEMYQTPMEVAVYQLHNFSTSFFSSLLGGDVVSVKLDNSASGASVVALDNKIEQAMDLVKNHLMYAVREEVEVLKEQIRELLEKNSQLERENTLLKTLASPEQLEKFQSRLSPEEPAPEAPETPETPEAPGGSAV
- apoptosis induced by DEX, UV irradiation, starvation or crosslinked anti-Fas monoclonal antibody (3DO transfected clones [1]): does not counteract
- Fas/Fas-L expression [2]: inhibits
- anti-CD3 induced activation (IL-2R, IL-2) (IL-2R): inhibits
- TCR/CD3-activated apoptosis (3DO transfected clones [3]): inhibits
